± gives the uncertainty stated by the source.
B1: DnaJ homolog subfamily C member 2, residues 451 to 503; numbered along this chain, Q99543 (parent)
chain: SKNWSEDDLQLLIKAVNLFPAGTNSRWEVIANYMNIHSSSGVKRTAKDVIGKA

Variants of: B1
Experiment: abundance fitness (aPCA) (normalised: wild type 0, dead -1); higher = more abundant; growth selection in yeast, the domain comes from the species named
Conditions: Homo sapiens

Variant | abundance fitness
SKNWSEDDLQLLIKAVNLFPAGTNSRWEVIANYMNIHSSSAVKRTAKDVIGKA [G41A] | 0.089 ± 0.067
SKNWSEDDLQLLIKAVNLFPAGTNSRWEVIANYMNIHSSSPVKRTAKDVIGKA [G41P] | -0.114 ± 0.074
SKNWSEDDLQLLIKAVNLFPAGTNSRWEVIANYMNIHSSSWVKRTAKDVIGKA [G41W] | -0.645 ± 0.077
SKNWSCDDLQLLIKAVNLFPAGTNSRWEVIANYMNIHSSSGVKRTAKDVIGKA [E6C] | 0.051 ± 0.13
SKNWSSDDLQLLIKAVNLFPAGTNSRWEVIANYMNIHSSSGVKRTAKDVIGKA [E6S] | 0.074 ± 0.12
SKNWSVDDLQLLIKAVNLFPAGTNSRWEVIANYMNIHSSSGVKRTAKDVIGKA [E6V] | -0.121 ± 0.12
SKNWSEDDAQLLIKAVNLFPAGTNSRWEVIANYMNIHSSSGVKRTAKDVIGKA [L9A] | -0.014 ± 0.078
SKNWSEDDLQLLKKAVNLFPAGTNSRWEVIANYMNIHSSSGVKRTAKDVIGKA [I13K] | 0.053 ± 0.074
SKNWSEDDLQLLYKAVNLFPAGTNSRWEVIANYMNIHSSSGVKRTAKDVIGKA [I13Y] | -0.038 ± 0.076
SKNWSEDDLQLLSKAVNLFPAGTNSRWEVIANYMNIHSSSGVKRTAKDVIGKA [I13S] | 0.073 ± 0.054
SKNWSEDDLQLLFKAVNLFPAGTNSRWEVIANYMNIHSSSGVKRTAKDVIGKA [I13F] | 0.039 ± 0.083
SKNWSEDDLQLSIKAVNLFPAGTNSRWEVIANYMNIHSSSGVKRTAKDVIGKA [L12S] | -0.802 ± 0.067
SKNWMEDDLQLLIKAVNLFPAGTNSRWEVIANYMNIHSSSGVKRTAKDVIGKA [S5M] | -0.514 ± 0.48
SKNWTEDDLQLLIKAVNLFPAGTNSRWEVIANYMNIHSSSGVKRTAKDVIGKA [S5T] | -0.014 ± 0.18
SKNWSEDDLQLLIKAVNLFPAGTNSRWEVIANYMNIHSSSGVKRTAKDVIGHA [K52H] | -0.126 ± 0.13
SKNWSEDDLQLLIKAVNLFPAGTNSRWEVIANYMNIHSSSGVKRTAKDVIGVA [K52V] | -0.181 ± 0.087
SKNWSEDDLQLLIKAVNLFPAGTNSRWEVIANYMNIHSSSGVKRTAKDVIGDA [K52D] | -0.666 ± 0.11
SKNWSEDDLQLLIKAVNLFPAGTNSRWEVIANYMNIHSSSGVKRTGKDVIGKA [A46G] | -0.246 ± 0.06
SKNWSEDDLQLLIKAVNLFPNGTNSRWEVIANYMNIHSSSGVKRTAKDVIGKA [A21N] | -0.217 ± 0.093
SKNWSEDDLQLLIKAVNLFPPGTNSRWEVIANYMNIHSSSGVKRTAKDVIGKA [A21P] | -0.094 ± 0.082
SKNWSEDDLQLLIKAVNLFPEGTNSRWEVIANYMNIHSSSGVKRTAKDVIGKA [A21E] | 0.066 ± 0.073
SKNWSEDDLQLLIKAVNLFEAGTNSRWEVIANYMNIHSSSGVKRTAKDVIGKA [P20E] | -0.358 ± 0.09
SKNWSEDDLQLLIKAVNLFFAGTNSRWEVIANYMNIHSSSGVKRTAKDVIGKA [P20F] | -0.984 ± 0.11
SKNWSEDDLQLLIKAVNLFTAGTNSRWEVIANYMNIHSSSGVKRTAKDVIGKA [P20T] | -0.607 ± 0.082
SKNWSELDLQLLIKAVNLFPAGTNSRWEVIANYMNIHSSSGVKRTAKDVIGKA [D7L] | -0.047 ± 0.053

Variant | abundance fitness
SKNWSEPDLQLLIKAVNLFPAGTNSRWEVIANYMNIHSSSGVKRTAKDVIGKA [D7P] | -0.045 ± 0.067
SKNWSEDDLQLLIKAVNLFPAGTNSRWEVIANYMNIHSSSGFKRTAKDVIGKA [V42F] | -0.145 ± 0.25
SKNWSEDDLQLLIKAVNLFPAGTNSRWEVIANYMNIHSSSGVKRTAKDVIGKS [A53S] | -0.001 ± 0.14
SKNWSEDDLQLLIKAVNLFPAGTNSRWEVIANYMNIHSSSGVKRTAKDVIGKV [A53V] | -0.035 ± 0.29
SKNWSEDDLQLLIKAVNLFPAGTNSRWEVIANYMNIHSSSGVKRTAKDVIGKD [A53D] | -0.08 ± 0.32
SKNWSEDDLQLLIKAVNLFPAGTNSRHEVIANYMNIHSSSGVKRTAKDVIGKA [W27H] | -0.537 ± 0.12
SKNWSEDDLQLLIKAVNLFPAGTNSRFEVIANYMNIHSSSGVKRTAKDVIGKA [W27F] | -0.207 ± 0.1
SKNWSEDDLQLLIKAVNLFPAGTNSRLEVIANYMNIHSSSGVKRTAKDVIGKA [W27L] | -0.597 ± 0.071
SKNWSEDDLQLLIKAVNLFPAGTNSRWEVIANYMNIHSSSGVKRTALDVIGKA [K47L] | -0.097 ± 0.065
SKNWSEDDLQLLIKAVNLFPAGTNSRWEVIANYMNIHSSSGVKRTAFDVIGKA [K47F] | -0.22 ± 0.13
SKNWSEDDLQLLIKAVNLFPAGTNSRWEVIANYMNIHSSSGVKRTAPDVIGKA [K47P] | -0.133 ± 0.11
SKNWSEDDLQLLIKAVNLFPAGTNSRWEVIANYMNIHSSSGVKRTACDVIGKA [K47C] | -0.206 ± 0.091
SKNWSEDDLQLLIFAVNLFPAGTNSRWEVIANYMNIHSSSGVKRTAKDVIGKA [K14F] | -0.006 ± 0.084
SKNISEDDLQLLIKAVNLFPAGTNSRWEVIANYMNIHSSSGVKRTAKDVIGKA [W4I] | -0.465 ± 0.12
SKNASEDDLQLLIKAVNLFPAGTNSRWEVIANYMNIHSSSGVKRTAKDVIGKA [W4A] | -0.639 ± 0.074
SKNWSEDDLQGLIKAVNLFPAGTNSRWEVIANYMNIHSSSGVKRTAKDVIGKA [L11G] | -0.819 ± 0.058
SKNWSEDDLQFLIKAVNLFPAGTNSRWEVIANYMNIHSSSGVKRTAKDVIGKA [L11F] | -0.382 ± 0.092
SKNWSEDDLQLLIKAVNLFPAGTNSRWEVIANYMNIHSSPGVKRTAKDVIGKA [S40P] | -0.52 ± 0.091
SKNWSEDDLQLLIKAVNLFPAGTNSRWEVIANYMNIHSSVGVKRTAKDVIGKA [S40V] | -0.484 ± 0.07
SKNWSEDDLQLLIKAVNLFPAGTNSRWEVIANYMNIHSSCGVKRTAKDVIGKA [S40C] | -0.217 ± 0.072
SKNWSEDDLQLLIKARNLFPAGTNSRWEVIANYMNIHSSSGVKRTAKDVIGKA [V16R] | 0.002 ± 0.055
SKNWSEDDLQLLIKASNLFPAGTNSRWEVIANYMNIHSSSGVKRTAKDVIGKA [V16S] | -0.054 ± 0.06
SKNWSEDDLQLLIKAVNLFPAGTNSRWEAIANYMNIHSSSGVKRTAKDVIGKA [V29A] | 0.082 ± 0.064
SKNWSEDDLQLLIKAVNLFPAGTNSRWEVIANYMKIHSSSGVKRTAKDVIGKA [N35K] | -0.871 ± 0.12

— the Human Domainome abundance scans (Beltran et al. 2025)
